# According to PMC1257591, “In Vitro Inhibition of Human Hepatic and cDNA-Expressed Sulfotransferase Activity with 3-Hydroxybenzo[a]pyrene by Polychlorobiphenylols” (Environmental Health Perspectives, 2005):
# Where a chain is given by its changes, count along the chain named. Numbers in names are those of the source.
# B1: SULT1E1 (Homo sapiens) (protein)
# chain: MNSELDYYEKFEEVHGILMYKDFVKYWDNVEAFQARPDDLVIATYPKSGTTWVSEIVYMIYKEGDVEKCKEDVIFNRIPFLECRKENLMNGVKQLDEMNSPRIVKTHLPPELLPASFWEKDCKIIYLCRNAKDVAVSFYYFFLMVAGHPNPGSFPEFVEKFMQGQVPYGSWYKHVKSWWEKGKSPRVLFLFYEDLKEDIRKEVIKLIHFLERKPSEELVDRIIHHTSFQEMKNNPSTNYTTLPDEIMNQKLSPFMRKGITGDWKNHFTVALNEKFDKHYEQQMKESTLKFRTEI
# notes: made in house; host or cells: Escherichia coli
# B2: SULT1A1*2 (Homo sapiens; R213H) (protein)
# chain: MELIQDTSRPPLEYVKGVPLIKYFAEALGPLQSFQARPDDLLISTYPKSGTTWVSQILDMIYQGGDLEKCHRAPIFMRVPFLEFKAPGIPSGMETLKDTPAPRLLKTHLPLALLPQTLLDQKVKVVYVARNAKDVAVSYYHFYHMAKVHPEPGTWDSFLEKFMVGEVSYGSWYQHVQEWWELSRTHPVLYLFYEDMKENPKREIQKILEFVGHSLPEETVDFVVQHTSFKEMKKNPMTNYTTVPQEFMDHSISPFMRKGMAGDWKTTFTVAQNERFDADYAEKMAGCSLSFRSEL
# notes: purchased PanVera (Madison, WI); host or cells: Sf-9
# B3: SULT1A1*1 (Homo sapiens) (protein)
# chain: B2 chain with H213R
# notes: as for B1
# B4: SULT1A3 (Homo sapiens) (protein)
# chain: MELIQDTSRPPLEYVKGVPLIKYFAEALGPLQSFQARPDDLLINTYPKSGTTWVSQILDMIYQGGDLEKCNRAPIYVRVPFLEVNDPGEPSGLETLKDTPPPRLIKSHLPLALLPQTLLDQKVKVVYVARNPKDVAVSYYHFHRMEKAHPEPGTWDSFLEKFMAGEVSYGSWYQHVQEWWELSRTHPVLYLFYEDMKENPKREIQKILEFVGRSLPEETMDFMVQHTSFKEMKKNPMTNYTTVPQELMDHSISPFMRKGMAGDWKTTFTVAQNERFDADYAEKMAGCSLSFRSEL
# notes: as for B1
# Tests used:
# Format in all cases: biochemical, human
# [1] = substrate: Oc1ccc2ccc3c4ccccc4cc4ccc1c2c43; assay: Kinetics of 3-OH-BaP sulfonation by partially purified cDNA-expressed SULT1E1; conditions: other: apparent, 3-OH-BaP as substrate
# Excerpt: (§1) The expression of human SULT1A1*1, SULT1A3, SULT1B1, and SULT1E1 in Escherichia coli has been described previously ([Dajani et al. 1998]; [Wang et al. 1998]). We grew E. coli cells containing the respective sulfotransferase genes as described previously ([Falany et al. 1990], [1994]), and prepared 100,000g supernatant fractions for use in inhibition studies and for partial purification of the SULT enzymes. We purchased expressed SULT1A1*2 cytosolic extract from PanVera (Madison, WI) and used it as supplied.
# (§2) The 100,000g supernatant fractions of SULT1A1*1, SULT1A3, SULT1B1, and SULT1E1 were partially purified by chromatographic methods ([Falany et al. 1990], [1994]). After the last step, a 3′-phosphoadenosine 5′-phosphate (PAP)-agarose affinity column, we dialyzed the fractions eluted with PAP with three changes of buffer to remove PAP before the assay of SULT activity with 3-OH-BaP as substrate. We analyzed active fractions by SDS-PAGE ([Laemmli 1970]) to assess the purity of each SULT enzyme. We stained the gels with Coomassie R-250 reagent and determined the percentage of protein present as each respective SULT enzyme by scanning densitometry.
# (§3) We determined SULT activity with 3-OH-BaP as substrate by a fluorimetric assay of BaP-3-SO4 product formation, as described previously ([Wang et al. 2004]). […] Duplicate tubes were prepared for each incubation condition. We examined the kinetics of sulfonation in three liver cytosol fractions by systematically varying the concentration of 3-OH-BaP or PAPS. When the variable substrate was 3-OH-BaP, we used 12 concentrations in the range from 0.035 to 2.00 μM, and the concentration of PAPS was kept constant at 10 μM. […]
# (§4) We determined the kinetic parameters for 3-OH-BaP sulfonation by partially purified preparations of the cDNA-expressed SULT isozymes under incubation conditions similar to those used for liver cytosol. […]
# (§5) We calculated the enzyme kinetic parameters from studies with variable concentrations of 3-OH-BaP using nonlinear regression analysis and GraphPad 4.0 software (GraphPad Software, San Diego, CA). […]
# [2] = substrate: Oc1ccc2ccc3c4ccccc4cc4ccc1c2c43; assay: Kinetics of 3-OH-BaP sulfonation by expressed SULT1A1*2; conditions: other: expressed SULT1A1*2; two-substrate model
# Excerpt: as §1
# as §3, with “PAPS.” for “PAPS. When the variable substrate was 3-OH-BaP, we used 12 concentrations in the range from 0.035 to 2.00 μM, and the concentration of PAPS was kept constant at 10 μM.”
# as §4, §5
# [3] = substrate: Oc1ccc2ccc3c4ccccc4cc4ccc1c2c43; assay: Kinetics of 3-OH-BaP sulfonation by partially purified cDNA-expressed SULT1A1*1; conditions: other: apparent; partially purified SULT1A1*1; 3-OH-BaP as substrate
# Excerpt: as §1, §2, §3, §4, §5
# [4] = substrate: Oc1ccc2ccc3c4ccccc4cc4ccc1c2c43; assay: Kinetics of 3-OH-BaP sulfonation by partially purified cDNA-expressed SULT1A3; conditions: other: apparent, 3-OH-BaP as substrate
# Excerpt: as §1, §2, §3, §4, §5
protein,measurement,setting,value
B1,Km,[1],0.05 µM
same,Vmax,[1],0.00835 µmol/min/mg
same,Vmax/Km,[1],167000 µL/min/mg
B2,Km,[2],0.022 µM
B3,Km,[3],0.018 µM
same,Vmax,[3],0.00689 µmol/min/mg
same,Vmax/Km,[3],383000 µL/min/mg
B4,Km,[4],2.90 µM
same,Vmax,[4],0.333 µmol/min/mg
same,Vmax/Km,[4],115000 µL/min/mg
